# Results: the supplement of paper PMC9170038
# Test system: MS2 coat protein
# Assay: apparent KD of MS2 coat protein; designed switch direction (-1 OFF switch, 1 ON switch): -1; higher = weaker reporter binding
# Outline: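 On Illumina chips, designed RNA switches with common flanks were made by stalled E. coli RNA polymerase. Titrations with SNAP-549-labelled MS2 coat protein, doubling from 0.7 or 1.5 nM to 3 µM, were done with no input, with 200 uM small-molecule ligand, or with an oligonucleotide input. Apparent KD is the median per design over clusters, from curve fits of normalised cluster fluorescence.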
# [1] = Eterna round: R95, input ligand: FMN 200 uM
# [2] = Eterna round: R95, input ligand: microRNA oligo, concentration not stated
# [3] = Eterna round: R95, input ligand: none
# [4] = input ligand: microRNA oligo, concentration not stated
sequence,measurement,setting,value
"AGUUGGCGAGGAUAUACAUGAGGAUCACCCAUGUGAGAGAUAGUAGUGAGGUCGAUUAGUAGAAGGCGCUGACA [Mat X3R4 m13] (Eterna round: R97, puzzle: Exclusion 3)",apparent KD of MS2 coat protein,input ligand: FMN 200 uM,278 nM
same,apparent KD of MS2 coat protein,input ligand: none,353 nM
"AGUUGGCGAGGAUAUACAUGAGGAUCACCCAUGUGUGAGAUAUAAGUGAGGUAAAUAUGUAGAAGGCGCUGACA [JR_Ex3_Sub079] (Eterna round: R97, puzzle: Exclusion 3)",apparent KD of MS2 coat protein,input ligand: FMN 200 uM,18.4 nM
same,apparent KD of MS2 coat protein,input ligand: none,425 nM
"AGUUGUUGUUUCCGUUCUUACAUGAGGAUCACCCAUGUUUCUUGUCGUGCUCGCGUUGCUCGUCUGGCUACCUGUUG [salish99_TOv1_r3_068] (puzzle: Sensor v3, turn-off variant 1)",apparent KD of MS2 coat protein,[1],33.9 nM
same,apparent KD of MS2 coat protein,[2],34 nM
same,apparent KD of MS2 coat protein,[3],43.8 nM
"AGUUUACAUGAGGAUCACCCAUGUGAGGAUAUGGAUUCGCUGGCCGUAGCCAGUGGAUCCAGAAGGCGCGUGAU [JL-ex1-4.29] (Eterna round: R97, puzzle: Exclusion 1)",apparent KD of MS2 coat protein,input ligand: FMN 200 uM,186 nM
same,apparent KD of MS2 coat protein,input ligand: none,101 nM
"AUAAAGCAAGCAUGGUCCCACAUGAGGAUCACCCAUGUGUUCGUCUUAUAGGCUGCUGUGGCUUUUGCCUCGUUGGC [LRO Sensor-off var1-09 loose mod of D91 from Mat747] (Eterna round: R97, puzzle: Sensor, turn-off variant 1)",apparent KD of MS2 coat protein,input ligand: FMN 200 uM,41.6 nM
same,apparent KD of MS2 coat protein,input ligand: none,46 nM
"AUAAAUCAUGUAGGAUAUGCGUGGCGAAGCUAUGCAGAAGGACAUGAGGAUCACCCAUGUUCUUCCGUCUGCGUACAGACGGAA [Mat - Exclusion NG 1 - Mod of JL - D39] (Eterna round: R96, puzzle: Exclusion NG 1)",apparent KD of MS2 coat protein,input ligand: FMN 200 uM,297 nM
same,apparent KD of MS2 coat protein,[4],28.5 nM
same,apparent KD of MS2 coat protein,input ligand: none,34.9 nM
"AUAACAAGCUUUUUUUUCGUAGUACAUGACGCUCGAGUCACAUGAGGAUCACCCAUGUCUUCCUGUUUGAUUGUUGA [JR_SV3TOV2_Sub058] (puzzle: Sensor v3, turn-off variant 2)",apparent KD of MS2 coat protein,[1],45.8 nM
same,apparent KD of MS2 coat protein,[2],54.7 nM
same,apparent KD of MS2 coat protein,[3],54.6 nM
"AUAACCGAAGGAUAUAGUCGUGAGGACAUGAGGAUCACCCAUGUGUUUCAGAUAGUCCCACUAGAAGGUCGGCGUC [Eternabot (L2) Solution 29] (Eterna round: R97, puzzle: Exclusion 5)",apparent KD of MS2 coat protein,input ligand: FMN 200 uM,110 nM
same,apparent KD of MS2 coat protein,input ligand: none,67.2 nM
"AUAAGCUUUUAUAUCCUUAACAUGAGGAUCACCCAUGUUCGUCUUAUGAUGGUCUGAUCCCUGAGGAUCGGACCGUU [JL-sv1-2.04 Brourd Mod] (puzzle: Sensor v3, turn-off variant 1)",apparent KD of MS2 coat protein,[1],31 nM
same,apparent KD of MS2 coat protein,[2],76.5 nM
same,apparent KD of MS2 coat protein,[3],29.9 nM
"AUAAGGUCAGGAUAUGCUUGGCGGAUUCUGGUGUCCAAAUGACAUGAGGAUCACCCAUGUAGAAGGGACAUCAG [Leonlexe] (Eterna round: R97, puzzle: Exclusion 2)",apparent KD of MS2 coat protein,input ligand: FMN 200 uM,12.4 nM
same,apparent KD of MS2 coat protein,input ligand: none,14.1 nM
AUAAUAAAGGAGGAUAUCGUAUCGGAAACGAUACGAGAAGGUCUAACAUGAGGAUCACCCAUGUUCCUCAAAUA [Mat - Exclusion 6 - Eli Mod - D49] (puzzle: Exclusion 6),apparent KD of MS2 coat protein,[2],40.9 nM
"AUAAUACAUGAGGAUCACCCAUGUGAGGAUAUGAGCCUACAUUCACGCAGAGAGAAGGUCAGAAGGCACUUGGU [Eternabot (L2) Solution 65] (Eterna round: R97, puzzle: Exclusion 1)",apparent KD of MS2 coat protein,input ligand: FMN 200 uM,211 nM
same,apparent KD of MS2 coat protein,input ligand: none,63.3 nM
"AUAAUACAUGUAGGAUAUCUGCACGAUUAGUGCAGAGAAGGACAUGAGGAUCACCCAUGUAAUUAAGAUCAAUUAUUAAAUUAU [ENG1/3-D1] (Eterna round: R96, puzzle: Exclusion NG 1)",apparent KD of MS2 coat protein,input ligand: FMN 200 uM,238 nM
same,apparent KD of MS2 coat protein,[4],63.9 nM
same,apparent KD of MS2 coat protein,input ligand: none,57 nM
"AUAAUACAUGUAGGAUAUCUGCACGUGUAGUGCAGAGAAGGACAUGAGGAUCACCCAUGUAAUUAAGAUCAAUUAUUAAAUUAU [ENG1/3-D3] (Eterna round: R96, puzzle: Exclusion NG 1)",apparent KD of MS2 coat protein,input ligand: FMN 200 uM,228 nM
same,apparent KD of MS2 coat protein,[4],53.6 nM
same,apparent KD of MS2 coat protein,input ligand: none,75.6 nM
"AUAAUGUAAGGAUAUCAGUCGUACAGCUUCGGCUGUACGACUGAGAAGGUACAUGAGGAUCACCCAUGUGAUCA [E4/8-A1] (Eterna round: R97, puzzle: Exclusion 4)",apparent KD of MS2 coat protein,input ligand: FMN 200 uM,185 nM
same,apparent KD of MS2 coat protein,input ligand: none,1680 nM
"AUAAUGUGAGGAUAUCAGUAGUAUUGCCUCGGCAAUACUACUGAGAAGGCACAUGAGGAUCACCCAUGUGAUCA [E4/2-B2] (Eterna round: R97, puzzle: Exclusion 4)",apparent KD of MS2 coat protein,input ligand: FMN 200 uM,29.3 nM
same,apparent KD of MS2 coat protein,input ligand: none,772 nM
"AUAAUGUGAGGAUAUCAGUCGACUAGCUUCGGCUAGUCGACUGAGAAGGCACAUGAGGAUCACCCAUGUAGAUC [E4/17-A1] (Eterna round: R97, puzzle: Exclusion 4)",apparent KD of MS2 coat protein,input ligand: FMN 200 uM,59 nM
same,apparent KD of MS2 coat protein,input ligand: none,925 nM
"AUAAUUAAUCGAGGAUAUCAGCACGUUUAGUGCUGAGAAGGCGACAUGAGGAUCACCCAUGUGAUCAAUUAAUAUUAAUAUUAU [ENG1/11-C2] (Eterna round: R96, puzzle: Exclusion NG 1)",apparent KD of MS2 coat protein,input ligand: FMN 200 uM,898 nM
same,apparent KD of MS2 coat protein,[4],230 nM
same,apparent KD of MS2 coat protein,input ligand: none,369 nM
AUACCACGAGGAUAUCGUCUAUUUCACAUGAGGAUCACCCAUGUUAUCUUUGUUUUGUUUCGAGAAGGCGUGUUUU [JR_E5_Sub078] (puzzle: Exclusion 5),apparent KD of MS2 coat protein,[2],28.1 nM
"AUAUACGGAGGAUAUACUUGAGGAUCACCCAAGUGGAGUCCCGUUUGGGCGGUAAAUAGUAGAAGGCCGACCCA [jl-ex3-4.43 ViennaUCT mod] (Eterna round: R97, puzzle: Exclusion 3)",apparent KD of MS2 coat protein,input ligand: FMN 200 uM,14.1 nM
same,apparent KD of MS2 coat protein,input ligand: none,16.5 nM
"AUAUAGAUAGUCAGGAUAUGCUAGUGAUAACAGUAGUAGAAGGGACAUGAGGAUCACCCAUGUAGAUACUGCAC [Brourd's EX4 #3] (Eterna round: R97, puzzle: Brourd's mod of Exclusion 4)",apparent KD of MS2 coat protein,input ligand: FMN 200 uM,19.6 nM
same,apparent KD of MS2 coat protein,input ligand: none,19.3 nM
"AUAUAGCGAGGAUAUACAUGAGGAUCACCCAUGUGGUAGUAGAUACAGUAGAGAUAGAGUAGAAGGCGCUAUGA [EX3 #7] (Eterna round: R97, puzzle: Exclusion 3)",apparent KD of MS2 coat protein,input ligand: FMN 200 uM,416 nM
same,apparent KD of MS2 coat protein,input ligand: none,79.2 nM
"AUAUUAAUAGUAAGGAUAUGCGUAUAUGUAGUUAUGCAGAAGGUACAUGAGGAUCACCCAUGUAUUAAUGUGUA [LRO-BmodExc4-04-Oppy's Opus] (Eterna round: R97, puzzle: Brourd's mod of Exclusion 4)",apparent KD of MS2 coat protein,input ligand: FMN 200 uM,16 nM
same,apparent KD of MS2 coat protein,input ligand: none,16 nM
"AUAUUGUGAGGAUAUGAACUUAGUUUCGAAAGAUACUAAGUUCAGAAGGCACAUGAGGAUCACCCAUGUUUCUC [Long static hairpin v21] (Eterna round: R97, puzzle: Exclusion 4)",apparent KD of MS2 coat protein,input ligand: FMN 200 uM,597 nM
same,apparent KD of MS2 coat protein,input ligand: none,79.8 nM
"AUAUUGUGAGGAUAUGUACUUAGUAUCGAAAGAUACUAAGUUCAGAAGGCACAUGAGGAUCACCCAUGUUUCUC [Long static hairpin v13] (Eterna round: R97, puzzle: Exclusion 4)",apparent KD of MS2 coat protein,input ligand: FMN 200 uM,805 nM
same,apparent KD of MS2 coat protein,input ligand: none,63.5 nM
"AUCACGGAUGUAAGGAUAUACAAAACCAUAAGGUAGUAGAAGGUACAUGAGGAUCACCCAUGUGCAUAUGUUUA [BmEX4 C.14] (Eterna round: R97, puzzle: Brourd's mod of Exclusion 4)",apparent KD of MS2 coat protein,input ligand: FMN 200 uM,18.5 nM
same,apparent KD of MS2 coat protein,input ligand: none,16.2 nM
"AUCAGCUCGUCAGGAUAUACAUGCGUGCUUCGGCACGUAUGAUAGAUCACAUGAGGAUCACCCAUGUAGAAGGGACGAGCUGAU [ENG2/4-B3] (Eterna round: R96, puzzle: Exclusion NG 2)",apparent KD of MS2 coat protein,input ligand: FMN 200 uM,15.3 nM
same,apparent KD of MS2 coat protein,[4],9.19 nM
same,apparent KD of MS2 coat protein,input ligand: none,12.7 nM
AUCAUGUAAGGAUAUCUGACAUGUGACGAAAGUCACUGUUCAGAGAAGGUACAUGAGGAUCACCCAUGUAGAAC [Ex4-3: 43] (puzzle: Exclusion 4),apparent KD of MS2 coat protein,[2],62.8 nM
"AUCCAACAUGAGGAUCACCCAUGUGAGGAUAUGCCCAAAACUCUUCGAUCCGAAGAGCGCAGAAGGCACAUGAA [EX1 A.18] (Eterna round: R97, puzzle: Exclusion 1)",apparent KD of MS2 coat protein,input ligand: FMN 200 uM,33.4 nM
same,apparent KD of MS2 coat protein,input ligand: none,13.2 nM
"AUCGGACAUGAGGAUCACCCAUGUCAGGAUAUCUGGAACCAUUGGCAGAUGAGGGAAAAGAGAAGGGACAGUGG [EX1 C.3] (Eterna round: R97, puzzle: Exclusion 1)",apparent KD of MS2 coat protein,input ligand: FMN 200 uM,20.2 nM
same,apparent KD of MS2 coat protein,input ligand: none,18.5 nM
AUCGUGGCUCAGGAUAUCAGCCCUGUGGAGUUCUGAGAAGGGAGCACAUGAGGAUCACCCAUGUGAAAGGGUAC [Esdienar] (puzzle: Exclusion 6),apparent KD of MS2 coat protein,[1],148 nM
same,apparent KD of MS2 coat protein,[2],45.6 nM
same,apparent KD of MS2 coat protein,[3],40.8 nM
"AUCGUGUGAGGAUAUCGAUGUUGGACGUCUAGGUCUGUGCGCGAGAAGGCACAUGAGGAUCACCCAUGUAAUGG [jl-ex4-4.26 ViennaUCT mod] (Eterna round: R97, puzzle: Exclusion 4)",apparent KD of MS2 coat protein,input ligand: FMN 200 uM,137 nM
same,apparent KD of MS2 coat protein,input ligand: none,347 nM
AUCUUGUAAGGAUAUCUUACAAGUGACUUCGGUCACAGUUAAGAGAAGGUACAUGAGGAUCACCCAUGUAUAAC [Ex4-3: 38] (puzzle: Exclusion 4),apparent KD of MS2 coat protein,[2],23.8 nM
AUGAGACAUGAGGAUCACCCAUGUGAGGAUAUGUAUGGAUGGUGGAAAGAAUGAGAGAACAGAAGGCACGUAGA [JR_Exclu1_Sub062] (puzzle: Exclusion 1),apparent KD of MS2 coat protein,[1],122 nM
same,apparent KD of MS2 coat protein,[2],109 nM
same,apparent KD of MS2 coat protein,[3],231 nM
AUGAGGUUAGGAUAUACAUGAGGAUCACCCAUGUUGAAAGGUUAGAUAGGAGAAGAUAGUAGAAGGAACAAAGA [JR_Exclu3_Sub053] (puzzle: Exclusion 3),apparent KD of MS2 coat protein,[1],31.8 nM
same,apparent KD of MS2 coat protein,[2],37.2 nM
same,apparent KD of MS2 coat protein,[3],43.1 nM
